Values of other authors, collected in article PMC3800467.

Molecular target: RRGHYY peptide

In the case of TEM1 β-lactamase (from UniProt P62593), the Ki is given as 140 µM.
